In patent US9371519B2, “Complex type sugar chain hydrolase” (National Institute of Advanced Industrial Science and …, priority 2011, dated 2016):
“Also recorded” adds a separate entry of the source.

Experiment: Detection of transglycosidase activity (HPLC, MS of transglycosylation product)
Format: biochemical
Conditions: donor 2 mM NGA2-Asn-Fmoc, acceptor 50 mM p-nitrophenylglucose, pH 6.0, 30° C.
Protocol: (§1) The transglycosidase activity of Endo-Om was detected by incubating the reaction solution containing a biantennary complex type sugar chain as the substrate, acceptor molecules (p-nitrophenylglucose), and an Endo-Om partially purified enzyme solution at 30° C. for 3 hours, and then subjecting it to HPLC after the completion of the reaction; a new peak different from the hydrolysate was detected, and was identified by MS analysis to be a transglycosylation product including an acceptor molecule to which a biantennary complex type sugar chain is added (FIG. 7).
as §1, with “Endo-Cp” for “Endo-Om”, “11).” for “7).”
as §1, with “of Endo-Pa” for “of Endo-Om”, “an Endo-Pa” for “an Endo-Om”, “for 16” for “for 3”, “(FIG. 15).” for “(FIG. 7).”
The transglycosidase activity of Endo-Om was detected as follows. The reaction solution containing a sodium acetate buffer at a final concentration of 100 mM (pH 6.0), 2 mM NGA2-Asn-Fmoc, 50 mM acceptor molecule (p-nitrophenylglucose), and an Endo-Om purified enzyme solution (total volume: 10 μl) was incubated at 30° C. for 3 hours, and heated at 95° C. for 5 minutes to stop the enzyme reaction. The total amount of the reaction solution was subjected to HPLC by the method described in Example 4, and detection was carried out using a UV detector (274 nm). In addition, the peak corresponding to a transglycosylation product was collected, freeze-dried, and then redissolved in Milli-Q water and subjected to mass spectrometry using MALDI-QIT-TOFMS (AXIMA-QIT, Shimadzu Co., Ltd.), thereby identifying the transglycosylation product.
The transglycosidase activity of Endo-Cp was detected as follows. […]
The transglycosidase activity of Endo-Pa was detected as follows. […]

Row | Molecule | Transglycosidase activity (16 hours) | Transglycosidase activity (3 hours)
1 | Endo-Pa: endo-β-N-acetylglucosaminidase from Pichia anomala ATCC36904, amino acid sequence SEQ ID NO. 9, 656 amino acids (protein, listed as Pichia anomala) MQHDHAAIKFEEDSISSQRFSSLDEVEKWYNTKNRSPLDDLRIPRESLSHYNRFRDNNDEIKVLVCHDFKGNYQEGEDENPLGYFPHSSGQHYFIQFPSLVDLFIFFSHYKIAVPPVSWINSLHRQGIPVLGTLIFEGTDVSESDKLLEKNENGDFKYLEILCELVRHYGFDGWLVNMESHFSSVAKAQDLLLFDEALRSTLHLKVPGSKLIWYDSLITQKNRVFYQNAVNEWNYDHFSTSDLFFTNYWWNEEDLKRNILNIGLQGVKQKLFVGVDIWGRGSRIGNGGFESGLAINYLKRYSTNVALFAPAWTYENFEEDQFLIKDRKFWIGDQTSDETGGSVATYVSHYTTPVYVKDQNVKFYTNFSVGEGTKYRVFAHTVFKNNWVNGNLQLPTPIIDNEKRIDIYYKESFNGGSSLKVTQRNSILNDGKSNILQLFSFKNDIHSNNLNVSVSFKYLSEIPLNSTFQLEIKFYIERRYRSVTRVRDGTFKLPLAFSNKNWKYIETSFALPRLQIREHFVLEGLQIRWVDNVDELSSSIGTSGDFTESWIIVPQNSDPNAVYELLIGDLLVEGIKTANGNIDAVTKLSRKITLDSRSILATWKDDTEVLYWIIYVNAKFLGIAHKSLWRVQRGDKLRVDVFTRSGKLVKGEDIFI | significant transglycosidase activity was confirmed; also recorded: has activity for transferring the cleaved sugar chain to any acceptor molecule | 
2 | Endo-Cp: endo-β-N-acetylglucosaminidase from Candida parapolymorpha DL-1 ATCC26012, amino acid sequence SEQ ID NO. 5, 745 amino acids (protein, listed as Candida parapolymorpha) MPRNTAKHSSLPQTNLPLSSLESSFFDSLDELANWERRIHEKSFELDELNKPTEKLAHYTRARQQSTSEDVKLLVCHDLKGGYQVNEDEDPLGYFPHPDGQHYFLQYPQLVDKFVYFSHHRVSIPPVSWINVCHRNAIKCLGTVIFEGNTYRDFEEADKLLTKQDGEYVFVRCLVALVEYFQFDGYLFNIETRFSNTRIASLLEPFLEQLRAELHVRNPSTELIWYDSYIYPENRVLYKNGVTEANYNFFSCCDSFFTNYWWNVKHLQDNIKNVGVLGSRLKVYAGYDVWGRGTMIGKGGYDSALACQMIKKYRSNVALFAPAWTYEYLARKDFTQNDTRFWIGLFDGESSMATTFKPYSSPLYKINDSNFVFYTNFGSGEGCAFYECGEKVYRDNWVNGSLQMEIPYAIHTRNKNGIQWTLSKEDSFHGGSCVEIKYNEVVDDKGYQVFNNQTINSFSLFSFVQDCSFPTVNVKLTYKLNHKTKSFFKLKIGYYIERRYRTVQKVRSGCLVVPLLSTNDQWFTIEEPFHVSLQNSHEFIVLDSATIFYEETEDPFMRAHVVEDQSTSSVIDNEEYEKLMNSEIYFDDEDEDWILVPSDISMESTDNGGRENHTWKVISNQIRKKHPKSHPSTSPVLKLGELAIINANDYPSDSFFKLMPVNSIDVRRWEGKILLIWKTNQDSVLYHLIFVDDVFQGISLVSKFVFEDQAVDEKSFKTKSGGSTKVRIDTVNRLGILVKGTDM |  | significant transglycosidase activity was confirmed; also recorded: has activity for transferring the cleaved sugar chain to any acceptor molecule
3 | Endo-Om: endo-β-N-acetylglucosaminidase from methylotrophic yeast Ogataea minuta IFO10746, amino acid sequence SEQ ID NO. 1, 772 amino acids (protein, listed as Ogataea minuta) MAQSQLLGGAVRPVFFDKLEELRRWHTQSANLSRESELDSLNVATEPFSSYERAQTGSGSRSSEPVPGDKEDPPIKLMVCHDFKGGYQDYEDAQPLGYFPHPTGSRYFLQYPQLIDQFVYFSHHRVTVPPVNWINFCHRNGIKCFGTVIFEGNASKDFEELDRLVSRDEKGDFVFVDALIKLAAHYGFDGYLLNIETTFSNTKIAADLEPFAEQLKSGLHCLDSKNELIWYDSYVFPANKVSYTNGVTESNYNFFSLSDAFFSNYWWNIKNLQENIKNVGVLGVQKKIYVGYDVWGRGTLVGKGGFDSSLACKMIAKFKSNVALFAPAWTYESLGPKDFNQNDARFWIGLFENESSISSTVPPHSSAVYKINESSFIFYTNFSSGEGNRFFSKGSEVYRKNWVNGSLQFDLPIDLHRKDKNGLQWALDKSDAFHGGACLEIKYSEIKDENGYQIFNNQMVSDFTLFNFTKECHFPTVNVKVTYKLNHKTKSTFKIKIKYIIERRFRSVQTVRTGYLTIPLLSTSGKWFTVEESFQINLQTSHEYIVLESAHVTYDEDRSADSFFRSYIVEDSAITSVIDNEEYEKLINSEIYNDDEDEDWILVPSDVSISSSESQSNDSKTQYLGRKLFGNKSTPKTRTLEGTAPLLRIGEFAIISANNYPSSNFLAVTSVKSIESSRLEGDSLVLLNWQVGEGHQKGVCYYIIYVNGAVVGLSVAPKFIYQDTELASENSASARSNYKKSGLGSSSDRKSKVRVDSVDKLGNVFTGSEVWV |  | has activity for transferring the cleaved sugar chain to any acceptor molecule; also recorded: significant transglycosidase activity was confirmed
4 | Endo-Zr: endo-β-N-acetylglucosaminidase from Zygosaccharomyces rouxii ATCC2623, amino acid sequence SEQ ID NO. 13, 639 amino acids (protein, listed as Zygosaccharomyces rouxii) MKRINQVPGKPEITSLYFDDLNSLQRWFDKGFMDSRDLSNVPKERYSNYVKFEKDSIITIPNLSARKTEIIVCHDFKGGYQSGHDLYPNGQYGTESCKPYSLRYPEIVDKFVYFSHHCVTIPPSPWTNYLHRHSIPVLGTLILEHYPHNGELFKKNAKGEFLYVKYLVELCRKFHFEGWLINFETVFGNNSKQVIPFLRELTARVECEIYGGSVIWYDAFTTFSNKPSHQNEVNLFNYDAYENSSQFMTNYMWDSHNVGNSLRNVGALGMHSHVALGVDVWGRNMQVCRGGFESNIAIYYAKRFGTNAVIFAPGWTYENFGEDQFYEKDDIFWGNIKSTLQLDSYSDSQLSSWFVSESKKTRYFTTFFSTGSGNFFNLNGRRISNDNWVQLGLSTPFPVNSHSYLSFKDSFVGGSCLALPLSPMENGKLHLFRFEQFIKDQQKTSDSEIRVKLSYKSLGALPPVKLVIKCFVIRRGKRSKTILKVDDVSLVLPLSHSACQTAQGSTKWAVVEQIVPLPSLESRFLEEYYVEDAHLEWTMDNNHDEWLMVPERTEDLDCKLLIGSLCLEIGPHEDNNKRQIVRNGPQLSWQDNESSFMWLKLQDGKLDSVLFTPTTKVNGKQPTILECGRNGTLKFVVKK | not detected; also recorded: transglycosidase activity was not confirmed | 
